Measurements from patent publication US20240209076A1 (KODIAK SCIENCES, published 2024).
Where a chain is given by its changes, count along the chain named. Numbers in names are those of the source. Blank lines part the entries; values can stand above or below the binder they belong to.

What was measured:
[1] = target: T1, recombinant human IL-6 (human, UniProt P05231 30-212); assay: SPR Biacore, supernatant Ab on Protein A chip, IL-6 analyte, 25 C
T1 construct: Bought protein
Procedure: (§1) Antibodies were captured on a Protein A chip (GE) by injecting 1:20 dilution of cell supernatant at 10 μL/min for 60 seconds. […] The sensor chip was regenerated by a 60 seconds injection of 10 mM Glycine pH 1.7 at flow rate of 50 μL/min. […] For this setup, 1 μg/mL of purified antibody was injected over a Protein A chip at 10 μL/min for 25-28 seconds. Data analysis for supernatant and purified samples were performed using BIAevaluation software (GE). All sensorgrams were double reference subtracted and fit using a 1:1 Langmuir binding model.
T1 sequence (P05231 30-212 limits assumed): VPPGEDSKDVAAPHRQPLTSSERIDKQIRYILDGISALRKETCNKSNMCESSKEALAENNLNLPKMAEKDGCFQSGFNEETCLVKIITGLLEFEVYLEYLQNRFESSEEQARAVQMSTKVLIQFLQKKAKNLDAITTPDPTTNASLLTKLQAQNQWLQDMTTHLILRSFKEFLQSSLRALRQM

[2] = target: T2, recombinant human IL-6 (human, UniProt P05231 30-212); assay: SPR (Biacore), purified IgG on Protein A, 37 C
T2 construct: Flowed in solution over the captured antibodies
Procedure: as §1
T2 sequence (P05231 30-212 limits assumed): as above

[3] = target: T2, recombinant human IL-6; assay: SPR (Biacore), supernatant IgG on Protein A, 25 C

B5: anti-IL-6 antibody, heavy chain G26S, light chain WT (antibody, IgG1, V domains shown)
VH: EVQLVESGGGLVQPGGSLRLSCAASSFTFSPFAMSWVRQAPGKGLEWVAKISPGGSWTYYSDTVTGRFTFSLDTSKSTAYLQMNSLRAEDTAVYYCARQLWGYYALDIWGQGTLVTVSS
VL: DIQLTQSPSSLSASVGDRVTITCSASISVSYMYWYQQKPGKAPKLLIYDMSNLASGVPSRFSGSGSGTDFTLTISSLQPEDFATYYCMQWSGYPYTFGQGTKVEIK
notes: Full IgG1 tested; V domains derived as in m2
- Kd [2]: 0.463 nM
- koff [2]: 0.00039 s⁻¹
- kon [2]: 842000 M⁻¹ s⁻¹
- Kd [3]: 0.209 nM
- koff [3]: 0.000115 s⁻¹
- kon [3]: 551000 M⁻¹ s⁻¹

B9: anti-IL-6 antibody, heavy chain I108F, light chain WT (antibody, IgG1, V domains shown)
VH: B5 VH with S26G, I108F
VL: B5 VL
notes: as for B5
- Kd [2]: 0.587 nM
- koff [2]: 0.000401 s⁻¹
- kon [2]: 683000 M⁻¹ s⁻¹
- Kd [3]: 0.399 nM
- koff [3]: 0.000146 s⁻¹
- kon [3]: 365000 M⁻¹ s⁻¹

B10: anti-IL-6 antibody, heavy chain G66D, light chain WT (antibody, IgG1, V domains shown)
VH: B5 VH with S26G, G66D
VL: B5 VL
notes: Full IgG1 tested
- Kd [2]: 0.0695 nM
- koff [2]: 0.000136 s⁻¹
- kon [2]: 1.96e+06 M⁻¹ s⁻¹
- Kd [3]: 0.0902 nM
- koff [3]: 0.000117 s⁻¹
- kon [3]: 1.3e+06 M⁻¹ s⁻¹

B11: anti-IL-6 antibody, heavy chain F29Y, light chain WT (antibody, IgG1, V domains shown)
VH: B5 VH with S26G, F29Y
VL: B5 VL
notes: as for B5
- Kd [2]: 0.444 nM
- koff [2]: 0.000374 s⁻¹
- kon [2]: 842000 M⁻¹ s⁻¹
- Kd [3]: 0.266 nM
- koff [3]: 0.000133 s⁻¹
- kon [3]: 499000 M⁻¹ s⁻¹

B12: anti-IL-6 antibody, heavy chain I108E, light chain WT (antibody, IgG1, V domains shown)
VH: B5 VH with S26G, I108E
VL: B5 VL
notes: as for B5
- Kd [2]: 0.404 nM
- koff [2]: 0.000372 s⁻¹
- kon [2]: 921000 M⁻¹ s⁻¹
- Kd [3]: 0.305 nM
- koff [3]: 0.000174 s⁻¹
- kon [3]: 571000 M⁻¹ s⁻¹

B14: anti-IL-6 antibody, heavy chain D107E, light chain WT (antibody, IgG1, V domains shown)
VH: B5 VH with S26G, D107E
VL: B5 VL
notes: as for B5
- Kd [2]: 0.527 nM
- koff [2]: 0.000402 s⁻¹
- kon [2]: 762000 M⁻¹ s⁻¹
- Kd [3]: 0.29 nM
- koff [3]: 0.000147 s⁻¹
- kon [3]: 509000 M⁻¹ s⁻¹

B15: anti-IL-6 antibody, heavy chain F29H, light chain WT (antibody, IgG1, V domains shown)
VH: B5 VH with S26G, F29H
VL: B5 VL
notes: as for B5
- Kd [2]: 0.466 nM
- koff [2]: 0.000397 s⁻¹
- kon [2]: 850000 M⁻¹ s⁻¹
- Kd [3]: 0.273 nM
- koff [3]: 0.000135 s⁻¹
- kon [3]: 495000 M⁻¹ s⁻¹

The next lines start with the values.

- Kd [1]: 7.48 nM
- koff [1]: 0.00444 s⁻¹
- kon [1]: 593000 M⁻¹ s⁻¹
B1: anti-IL-6 antibody, light chain Y95I (heavy chain WT) (antibody, V domains shown)
VH: B5 VH with S26G
VL: B5 VL with Y95I
notes: See note of m2; also called WT / Y95I

- Kd [2]: 0.524 nM
- koff [2]: 0.000453 s⁻¹
- kon [2]: 864000 M⁻¹ s⁻¹
- Kd [3]: 0.222 nM
- koff [3]: 0.000128 s⁻¹
- kon [3]: 577000 M⁻¹ s⁻¹
B2: anti-IL-6 antibody, heavy chain W57F, light chain WT (antibody, IgG1, V domains shown)
VH: B5 VH with S26G, W57F
VL: B5 VL
notes: as for B5

- Kd [1]: 0.472 nM
- koff [1]: 0.000138 s⁻¹
- kon [1]: 292000 M⁻¹ s⁻¹
B3: anti-IL-6 antibody, light chain Y31F (heavy chain WT) (antibody, V domains shown)
VH: B5 VH with S26G
VL: B5 VL with Y31F
notes: See note of m2; also called WT / Y31F

- Kd [2]: 0.499 nM
- koff [2]: 0.00041 s⁻¹
- kon [2]: 823000 M⁻¹ s⁻¹
- Kd [3]: 0.384 nM
- koff [3]: 0.000153 s⁻¹
- kon [3]: 398000 M⁻¹ s⁻¹
B4: anti-IL-6 antibody, heavy chain L100Q, light chain WT (antibody, IgG1, V domains shown)
VH: B5 VH with S26G, L100Q
VL: B5 VL
notes: as for B5

- Kd [2]: 0.634 nM
- koff [2]: 0.000541 s⁻¹
- kon [2]: 852000 M⁻¹ s⁻¹
- Kd [3]: 0.314 nM
- koff [3]: 0.000185 s⁻¹
- kon [3]: 591000 M⁻¹ s⁻¹
B6: anti-IL-6 antibody, heavy chain L106F, light chain WT (antibody, IgG1, V domains shown)
VH: B5 VH with S26G, L106F
VL: B5 VL
notes: as for B5

- Kd [2]: 0.425 nM
- koff [2]: 0.000378 s⁻¹
- kon [2]: 889000 M⁻¹ s⁻¹
- Kd [3]: 0.235 nM
- koff [3]: 0.000119 s⁻¹
- kon [3]: 508000 M⁻¹ s⁻¹
B7: anti-IL-6 antibody, heavy chain WT, light chain A25T (antibody, IgG1, V domains shown)
VH: B5 VH with S26G
VL: B5 VL with A25T
notes: as for B5

- Kd [1]: 0.666 nM
- koff [1]: 0.000203 s⁻¹
- kon [1]: 305000 M⁻¹ s⁻¹
B8: anti-IL-6 antibody, light chain Y31G (heavy chain WT) (antibody, V domains shown)
VH: B5 VH with S26G
VL: B5 VL with Y31G
notes: See note of m2; also called WT / Y31G

- Kd [2]: 0.685 nM
- koff [2]: 0.00069 s⁻¹
- kon [2]: 1.01e+06 M⁻¹ s⁻¹
- Kd [3]: 0.443 nM
- koff [3]: 0.000193 s⁻¹
- kon [3]: 436000 M⁻¹ s⁻¹
B13: anti-IL-6 antibody, heavy chain WT, light chain I27F (antibody, IgG1, V domains shown)
VH: B5 VH with S26G
VL: B5 VL with I27F
notes: as for B5
